Patent publication US12466853B2, “Selective targeting of apoptosis proteins by structurally-stabilized and/or cysteine-reactive NOXA peptides” (priority 2017, dated 2025)
Where a chain is given by its changes, count along the chain named.

How the values were obtained:
full-length BFL-1 = target: T1, full-length BFL-1 (Homo sapiens, UniProt Q16548); experiment: Covalent crosslinking to full-length BFL-1, recombinant and HA-tagged expressed in 293T cells; assay type: binding; conditions: recombinant and expressed in 293T cells; somewhat reduced efficiency vs C-terminally truncated species
T1 construct: Recombinant full-length BFL-1 (aa-175) containing an N-terminal hexahistidine tag; made in house
T1 sequence (Q16548 1-175): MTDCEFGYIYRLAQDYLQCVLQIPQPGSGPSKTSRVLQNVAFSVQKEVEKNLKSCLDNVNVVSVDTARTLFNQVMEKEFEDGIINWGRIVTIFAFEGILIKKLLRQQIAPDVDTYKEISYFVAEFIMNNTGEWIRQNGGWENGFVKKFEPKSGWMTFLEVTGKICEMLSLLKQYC
Text: We confirmed that both of our lead constructs could covalently crosslink to full-length BFL-1 protein, which bears a C-terminal helix that could potentially compete with D-NA-NOXA SAHBs for interaction at the canonical BH3-binding pocket in cancer cells. We generated recombinant full-length BFL-1 and expressed HA-tagged full-length BFL-1 in 293T cells, and then conducted crosslinking analyses in vitro and in treated cells, respectively.
Recombinant full-length BFL-1 (aa-175) containing an N-terminal hexahistidine tag was cloned into the PTYB1 vector (New England Biolabs) and purified as above except for the addition of a chitin affinity chromatography and DTT elution step. Protein purity and identity was confirmed by Coomassie staining and western blot analysis using a mouse monoclonal anti-His6 tag antibody (Abcam).
His-BFL-1ΔC C4S/C19S protein (5 μM) was pre-treated with 10 mM DTT in 50 mM Tris (pH 8.0) and 100 mM NaCl for 30 min at room temperature (final volume […]) and then combined with a 10:1 molar ratio of cysteine-reactive NOXA SAHB for an additional 1-hr incubation at room temperature. The samples were then boiled in 3× loading buffer with DTT and electrophoresed on 12% Bis-Tris gel, then subjected to Coomassie staining.

His-BFL-1ΔC = target: T2, His-BFL-1ΔC (Homo sapiens, UniProt Q16548); experiment: Streptavidin pulldown from recombinant protein mixture, BFL-1; assay type: binding; conditions: equimolar mixture of recombinant MCL-1, BCL-XL, BFL-1 and biotinylated SAHB, silver stain
T2 construct: Recombinant anti-apoptotic BFL-1ΔC (aa 1-151) and its cysteine to serine mutants were cloned into PET17b; made in house; host or cells: Escherichia coli LOBSTR BL21(DE3)
T2 sequence (Q16548 1-151): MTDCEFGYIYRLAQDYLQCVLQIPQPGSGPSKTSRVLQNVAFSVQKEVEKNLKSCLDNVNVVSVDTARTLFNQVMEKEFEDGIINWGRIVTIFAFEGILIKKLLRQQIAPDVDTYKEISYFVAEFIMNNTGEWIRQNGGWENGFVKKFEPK
Experimental: WT His-BFL-1ΔC, BCL-XLΔC (tagless), and GST-MCL-1ΔNΔC (1 μM each) were combined and incubated with 3 mM DTT in PBS for thirty minutes at room temperature. Mixtures were treated with vehicle or the indicated C-terminally biotinylated NOXA SAHB (1 μM) for four hours and were then added to 30 μL PBS-washed high-capacity streptavidin (SA) agarose beads (Thermo Fisher Pierce) and incubated with rotation at room temperature for two hours. The beads were then washed three times with NP-40 lysis buffer (1% NP-40, 50 mM Tris pH 8, 100 mM NaCl, 2.5 mM MgCl2) and three times with PBS. To elute bound protein, beads were boiled for ten minutes with 10% SDS containing 10 mg/mL biotin. After elution, samples were boiled with 3×LDS and 2M DTT for twenty minutes. Gel electrophoresis using a 12% Bis-Tris gel was conducted on inputs (2%) and eluates (5 μL) and gels were developed using the Pierce silver staining kit (Thermo Fisher).

native BFL-1 = target: T3, native BFL-1 (Homo sapiens, UniProt Q16548); experiment: BFL-1 targeting in A375P lysates (streptavidin pulldown, BFL-1 western); assay type: binding; conditions: biotinylated SAHB, compared to acetylated construct
T3 construct: endogenous in cells; host or cells: A375P melanoma cells (A10); U937 AML cells (A12), lysates
T3 sequence (Q16548 1-175): T1 sequence (Q16548 1-175)
Experimental: (§1) Cultured A375P and U937 cells were trypsinized or harvested, respectively, washed with PBS, and lysed by incubating with 1% CHAPS lysis buffer (1% CHAPS, 150 mM NaCl, 50 mM Tris pH 7.4, 100 μM DTT). The protein concentrations of the soluble fraction were measured using a BCA kit according to the manufacturer's instructions (Thermo Scientific). Lysate samples (1 mg) were incubated with vehicle or C-terminally biotinylated NOXA SAHBs (30 μM) overnight in 1% CHAPS lysis buffer at 4° C. Biotin capture was accomplished by incubating the mixture with high-capacity SA agarose (Thermo Scientific) for 2 hours at 4° C., followed by centrifugation and washing the pelleted beads three times with lysis buffer (1 mL). Bead-bound proteins were eluted by boiling in 10% SDS containing 10 mg/mL biotin for 10 minutes and then subjected to electrophoresis and western blotting using BFL-1 (Abcam, #125259) and MCL-1 (Rockland #600-401-394S) antibodies.

MCL-1 = target: T4, MCL-1 (Homo sapiens, UniProt Q07820); experiment: MCL-1 engagement in A375P lysates (streptavidin pulldown, MCL-1 western); assay type: binding; conditions: biotinylated SAHB
T4 construct: endogenous protein in lysates from the A375P melanoma cell line; endogenous in cells; host or cells: A375P melanoma cells (lysate)
Experimental: as §1

[1] = target: T5, BFL-1ΔC C4S/C19S/C55S / FITC-BID BH3 (Homo sapiens, UniProt Q16548, C19S/C4S/C55S); experiment: Competitive fluorescence polarization binding assay, BFL-1ΔC C4S/C19S/C55S
T5 construct: Recombinant anti-apoptotic BFL-1ΔC (aa 1-151) and its cysteine to serine mutants were cloned into PET17b; hexahistidine (N); made in house; host or cells: Escherichia coli LOBSTR BL21(DE3)
T5 sequence (Q16548 1-151 C4S/C19S/C55S): T2 sequence (Q16548 1-151) with C4S, C19S, C55S
Experimental: Fluorescence polarization (FP) assays were performed as previously described (Pitter et al., 2008 (supra)). Briefly, direct binding curves were first generated by FITC-BID BH3 (25 nM) with serial dilutions of anti-apoptotic protein, and FP was measured at 5 min on a SpectraMax M5 microplate reader (Molecular Devices). For competition assays, a serial dilution of acetylated or warhead-bearing NOXA SAHB was added to the indicated recombinant protein at ˜EC75 concentration, as determined by the direct binding assay. FITC-BID BH3 (25 nM) was then added and fluorescence polarization was measured at equilibrium. IC50 values were calculated by nonlinear regression analysis of competitive binding curves using PRISM software (GraphPad).

What does the source list for JAT8LREFGDXLNFRQ [D-NA-NOXA-15 R31E]?
covalent crosslinking to full-length BFL-1 (full-length BFL-1): covalent crosslinking to recombinant and expressed full-length BFL-1; BFL-1 binding / pull down (His-BFL-1ΔC): striking competitive advantage for BFL-1 targeting over its acetylated counterpart; targeting of native BFL-1 (native BFL-1): enhanced targeting of native BFL-1; MCL-1 engagement (MCL-1): approximately equivalent binding to MCL-1; competition for FITC-BID BH3 binding to BFL-1ΔC C4S/C19S/C55S [1]: neither D-NA- nor Ac-NOXA15 R31E competes
